Laboratory results: patent US12559863B2, “Macrocyclic modulators of disease associated protein misfolding and aggregation” (RESQ BIOTECH, priority 2017, dated 2026)

Target: T1, Aβ42-GFP (Homo sapiens, UniProt P05067)
T1 construct: a chimeric fusion of the human Aβ(1-42) peptide (Aβ42) with GFP; expressed in transfected cells; host or cells: E. coli BL21(DE3)
Assay: High-throughput sequencing of pSICLOPPS vectors isolated after bacterial sorting for enhanced Aβ42-GFP fluorescence
Details: for Reads/Total TXXXR reads (%): relative to total TXXXR reads; for Reads/Total pentapeptide reads (%): relative to total pentapeptide reads; for Normalized read number (%): Table 3, cyclo-TXXR tetrapeptides
Text: On the other hand, very few bioactive sequences resembling AβC5-34 should exist. […] The peptide-encoding vectors contained in these clones were isolated and the peptide-encoding region of approximately 5.6 million of these plasmids was sequenced using an Ion Torrent high-throughput sequencing platform. […] First, pentapeptides were the dominant peptide species within the sorted pool (FIG. 12D), in agreement with previous observations (FIG. 8G). Second, the most prevalent motif among the selected pentapeptide sequences were TXXXR pentapeptides (˜47% of the selected pentapeptide-encoding pSICLOPPS plasmids; ˜42% of the unique selected pentapeptide sequences) (Table 1), in accordance with previous observations (FIG. 8G). […] At position 2, Thr, Ala, and Val were preferred, while aromatic residues (Phe, Trp, Tyr) were completely excluded from the selected TXXXR peptide pool, in full agreement with our site-directed mutagenesis studies. At the highly variable position 3, the complete absence of the negatively charged amino acids Glu and Asp among the selected sequences was notable (FIG. 12E). […] It is noteworthy, that Lys and Gln residues were practically absent from all positions, while the β sheet-breaking amino acid Pro that is typically included in designed peptide-based inhibitors of amyloid aggregation appeared with strikingly low frequencies (FIG. 12E).
Electrocompetent E. coli BL21(DE3) cells (Novagen, USA) carrying either the expression vector pETSOD1(A4V)-GFP, which produces SOD1(A4V)-GFP under control of the strong bacteriophage T7 promoter, or pETAβ42-GFP, which produces Aβ42-GFP under control of the T7 promoter, were co-transformed with the combined pSICLOPPS-NuX1X2X3-X5 vector library. Approximately 10^8 transformants carrying both the vector library and either pETSOD1(A4V)-GFP or pETAβ42-GFP vectors were harvested, pooled together, and grown in Luria-Bertani (LB) liquid medium containing either 0.005% (pETSOD1(A4F)-GFP) or 0.002% (pETAβ42-GFP) L-arabinose—the inducer of cyclic peptide production—at 37° C. with shaking. When the optical density at 600 nm (OD600) of the bacterial culture was about 0.5, 0.01 (pETSOD1(A4F)-GFP) or 0.1 (pETAβ42-GFP) mM isopropyl-β-D-thiogalactoside (IPTG) was added to the medium to induce overexpression of the reporter. […] The isolated cells were re-grown and screened for additional rounds in an identical manner until the desired enrichment in high-fluorescence clones was achieved.
For the characterization of the initial libraries, a combined pSICLOPPS-NuX1X2X3-X5 vector library was prepared containing approximately equal amounts of each one of the tetra-, penta- and hexapeptide sub-libraries. These samples were digested with NcoI and BsrGI and the resulting ˜250 bp product that contained the variable peptide-encoding region was isolated. High-throughput sequencing analysis was performed using an Ion Torrent high-throughput sequencing platform. From the obtained data, all the sequences with mismatches outside of the variable peptide-encoding region were removed, and only the 12-, 15- or 18-bp-long peptide-encoding sequences were subjected to further analysis. The libraries of the selected cyclic peptides that enhance either SOD1(A4V)-GFP or Aβ42-GFP fluorescence were sequenced in a similar manner, with the only exception being that all sequences including stop codons were discarded from subsequent analysis.

[1] = after the second round of bacterial sorting for enhanced Aβ42-GFP fluorescence
[2] = after the second round of bacterial sorting for enhanced Aβ42-GFP fluorescence, relative to total peptide reads
[3] = pSICLOPPS-NuX1X2X3-X5 vectors after the second round of bacterial sorting for enhanced Aβ42-GFP fluorescence
[4] = after the second round of bacterial sorting
[5] = after the second round of bacterial sorting, relative to total peptide reads
[6] = high-throughput sequencing of isolated pSICLOPPS-NuX1X2X3-X5 vectors after the second round of bacterial sorting for enhanced Aβ42-GFP fluorescence, selected cyclo-TXXXR pentapeptides
[7] = Table 4, hexapeptides, after second round of sorting

Row | Substance | Reads/Total TXXXR reads (%) [4] | Reads/Total pentapeptide reads (%) [4] | Reads/Total peptide reads (%) [5] | Number of reads [6] | also measured
1 | AβC5-422 (TAWRR; cyclic pentapeptide) | – | – | – | – | Reads/Total TXXXR reads (%) [1]: 0.004%; Reads/Total pentapeptide reads (%) [1]: 0.002%; Reads/Total peptide reads (%) [2]: 0.002%; Number of reads [3]: 72
2 | AβC5-391 (TLLIR; head-to-tail cyclic) | – | – | – | – | Reads/Total TXXXR reads (%) [1]: 0.005%; Reads/Total pentapeptide reads (%) [1]: 0.002%; Reads/Total peptide reads (%) [2]: 0.002%; Number of reads [3]: 88
3 | AβC5-323 (TAVDR; head-to-tail cyclic) | 0.008% | 0.004% | 0.003% | 147 | –
4 | AβC5-389 (THLDR; head-to-tail cyclic) | – | – | – | – | Reads/Total TXXXR reads (%) [1]: 0.005%; Reads/Total pentapeptide reads (%) [1]: 0.002%; Reads/Total peptide reads (%) [2]: 0.002%; Number of reads [3]: 89
5 | AβC5-117 (TTRCR; cyclic) | 0.223% | 0.104% | 0.094% | 4,237 | –
6 | AβC5-415 (TTTCR; cyclic pentapeptide) | – | – | – | – | Reads/Total TXXXR reads (%) [1]: 0.004%; Reads/Total pentapeptide reads (%) [1]: 0.002%; Reads/Total peptide reads (%) [2]: 0.002%; Number of reads [3]: 74
7 | TIFWFD [AβC6-50] | – | – | – | – | Reads/Total hexapeptide reads (%) (Table 4): 0.050%; Reads/Total peptide reads (%) (Table 4): 0.005%; Number of reads [7]: 227
8 | AβC5-80 (TSVHR; cyclic) | 0.535% | 0.251% | 0.225% | 10,181 | –
9 | AβC5-242 (TTSTR; cyclic) | 0.020% | 0.009% | 0.008% | 376 | –
10 | TPVWFD [AβC6-1] | – | – | – | – | Reads/Total hexapeptide reads (%) (Table 4): 29.151%; Reads/Total peptide reads (%) (Table 4): 2.912%; Number of reads [7]: 131,935
11 | AβC5-440 (TATGR; cyclic pentapeptide) | – | – | – | – | Reads/Total TXXXR reads (%) [1]: 0.003%; Reads/Total pentapeptide reads (%) [1]: 0.002%; Reads/Total peptide reads (%) [2]: 0.001%; Number of reads [3]: 61
12 | cyclo-TLIR (cyclic) [AβC4B-41] | – | – | – | – | Normalized read number (%): 0.775%
13 | AβC5-130 (TAYHR; cyclic) | 0.136% | 0.064% | 0.057% | 2,594 | –
14 | TLCWLN [AβC6-32] | – | – | – | – | Reads/Total hexapeptide reads (%) (Table 4): 0.101%; Reads/Total peptide reads (%) (Table 4): 0.010%; Number of reads [7]: 455
15 | AβC5-320 (TTVER; head-to-tail cyclic) | 0.008% | 0.004% | 0.003% | 150 | –
16 | AβC5-2 (TTYAR; cyclic) | 16.023% | 7.506% | 6.727% | 304,753 | –
17 | AβC5-185 (TTFNR; cyclic) | 0.042% | 0.020% | 0.018% | 800 | –
18 | AβC5-385 (TTLYR; head-to-tail cyclic) | – | – | – | – | Reads/Total TXXXR reads (%) [1]: 0.005%; Reads/Total pentapeptide reads (%) [1]: 0.002%; Reads/Total peptide reads (%) [2]: 0.002%; Number of reads [3]: 90
19 | AβC5-361 (TTKWR; head-to-tail cyclic) | 0.006% | 0.003% | 0.002% | 108 | –
20 | AβC5-102 (TTYNR; cyclic) | 0.319% | 0.149% | 0.134% | 6,067 | –
21 | AβC5-376 (TIRDR; head-to-tail cyclic) | 0.005% | 0.002% | 0.002% | 96 | –

Row | Substance | Reads/Total TXXXR reads (%) [4] | Reads/Total pentapeptide reads (%) [4] | Reads/Total peptide reads (%) [5] | Number of reads [6] | also measured
22 | AβC5-136 (TALHR; cyclic) | 0.107% | 0.050% | 0.045% | 2,026 | –
23 | AβC5-291 (TTLDR; cyclic) | 0.011% | 0.005% | 0.005% | 213 | –
24 | TLEYLW [AβC6-49] | – | – | – | – | Reads/Total hexapeptide reads (%) (Table 4): 0.051%; Reads/Total peptide reads (%) (Table 4): 0.005%; Number of reads [7]: 233
25 | TPAWFD [AβC6-2] | – | – | – | – | Reads/Total hexapeptide reads (%) (Table 4): 24.555%; Reads/Total peptide reads (%) (Table 4): 2.453%; Number of reads [7]: 111,132
26 | AβC5-276 (TSWAR; cyclic) | 0.013% | 0.006% | 0.005% | 249 | –
27 | AβC5-364 (TTMAR; head-to-tail cyclic) | 0.006% | 0.003% | 0.002% | 106 | –
28 | AβC5-173 (TTHAR; cyclic) | 0.050% | 0.023% | 0.021% | 953 | –
29 | AβC5-105 (TVRWR; cyclic) | 0.287% | 0.134% | 0.120% | 5,450 | –
30 | AβC5-41 (TGWAR; head-to-tail cyclic) | 1.145% | 0.537% | 0.481% | 21,784 | –
31 | cyclo-TTGR [AβC4-35] | – | – | – | – | Normalized read number (%): 0.295%
32 | AβC5-366 (TTMVR; head-to-tail cyclic) | 0.006% | 0.003% | 0.002% | 105 | –
33 | TLSVFD [AβC6-57] | – | – | – | – | Reads/Total hexapeptide reads (%) (Table 4): 0.039%; Reads/Total peptide reads (%) (Table 4): 0.004%; Number of reads [7]: 176
34 | AβC5-252 (TVIWR; cyclic) | 0.017% | 0.008% | 0.007% | 331 | –
35 | AβC5-448 (TAYAR; cyclic pentapeptide) | – | – | – | – | Reads/Total TXXXR reads (%) [1]: 0.003%; Reads/Total pentapeptide reads (%) [1]: 0.001%; Reads/Total peptide reads (%) [2]: 0.001%; Number of reads [3]: 58
36 | AβC5-146 (TTWSR; cyclic) | 0.085% | 0.040% | 0.036% | 1,612 | –
37 | TCSWFD [AβC6-27] | – | – | – | – | Reads/Total hexapeptide reads (%) (Table 4): 0.138%; Reads/Total peptide reads (%) (Table 4): 0.014%; Number of reads [7]: 623
38 | TPLWFN [AβC6-40] | – | – | – | – | Reads/Total hexapeptide reads (%) (Table 4): 0.070%; Reads/Total peptide reads (%) (Table 4): 0.007%; Number of reads [7]: 316
39 | TPALVD [AβC6-53] | – | – | – | – | Reads/Total hexapeptide reads (%) (Table 4): 0.046%; Reads/Total peptide reads (%) (Table 4): 0.005%; Number of reads [7]: 208
40 | AβC5-301 (TTTRR; cyclic) | 0.010% | 0.005% | 0.004% | 191 | –
41 | AβC5-30 (TSTAR; cyclic) | 1.444% | 0.676% | 0.606% | 27,456 | –
